In the supplement of paper PMC12855868:

B1: library; numbered along this chain (parent)
chain: MAAAGGARLLRAASAVLGGPAGRWLHHAGSRAGSSGLLRNRGPGGSAEASRSLSVSARARSSSEDKITVHFINRDGETLTTKGKVGDSLLDVVVENNLDIDGFGACEGTLACSTCHLIFEDHIYEKLDAITDEENDMLDLAYGLTDRSRLGCQICLTKSMDNMTVRVPETVADARQSIDVGKTS

Variants of: B1
Assay: scaled log2 fold change in cell abundance, elesclomol vs control (0 = silent mean, 1 = nonsense mean) (scaled log2 ratio); higher = higher viability under elesclomol (loss of FDX1 cuproptosis function)
Settings: glucose 10 mM
Procedure: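 Deep mutational scan of full-length human FDX1: a pooled saturation-mutagenesis ORF library (every residue 2-184 mutated to all 19 amino acids plus stop, and silent codons where available) was expressed by lentivirus in FDX1-knockout ABC1 (14 days) or HEK293T (11 days) cells grown with elesclomol (ES) or DMSO control. Variant abundance came from ORF sequencing. The log2 fold change (ES vs control, mean of duplicates) was centred on the silent-variant mean (0) and scaled to the nonsense-variant mean (1). Higher values mean greater viability under ES, i.e. loss of FDX1 function in cuproptosis.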

[1] = with ABC1 FDX1 KO, elesclomol 5 nM, 14 days
[2] = with HEK293T FDX1 KO, elesclomol 40 nM, 11 days
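Also: variant abundance is its share of total variant reads in each endpoint sample, from next-generation sequencing of the integrated ORF PCR-amplified out of genomic DNA.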

MAAAGGARLLRAASAVLGGPAGRWWHHAGSRAGSSGLLRNRGPGGSAEASRSLSVSARARSSSEDKITVHFINRDGETLTTKGKVGDSLLDVVVENNLDIDGFGACEGTLACSTCHLIFEDHIYEKLDAITDEENDMLDLAYGLTDRSRLGCQICLTKSMDNMTVRVPETVADARQSIDVGKTS [L25W]
scaled log2 fold change [1]: 0.28 | scaled log2 fold change [2]: 0.019

MAAAGGARLLRAASAVLGGPAGRWAHHAGSRAGSSGLLRNRGPGGSAEASRSLSVSARARSSSEDKITVHFINRDGETLTTKGKVGDSLLDVVVENNLDIDGFGACEGTLACSTCHLIFEDHIYEKLDAITDEENDMLDLAYGLTDRSRLGCQICLTKSMDNMTVRVPETVADARQSIDVGKTS [L25A]
scaled log2 fold change [1]: -0.505

MAAAGGARLLRAASAVLGGPAGRWDHHAGSRAGSSGLLRNRGPGGSAEASRSLSVSARARSSSEDKITVHFINRDGETLTTKGKVGDSLLDVVVENNLDIDGFGACEGTLACSTCHLIFEDHIYEKLDAITDEENDMLDLAYGLTDRSRLGCQICLTKSMDNMTVRVPETVADARQSIDVGKTS [L25D]
scaled log2 fold change [1]: -0.703

MAAAGGARLLRAASAVLGGPAGRWYHHAGSRAGSSGLLRNRGPGGSAEASRSLSVSARARSSSEDKITVHFINRDGETLTTKGKVGDSLLDVVVENNLDIDGFGACEGTLACSTCHLIFEDHIYEKLDAITDEENDMLDLAYGLTDRSRLGCQICLTKSMDNMTVRVPETVADARQSIDVGKTS [L25Y]
scaled log2 fold change [1]: 0.423 | scaled log2 fold change [2]: 0.926

MAAAGGARLLRAASAVLGGPAGRWKHHAGSRAGSSGLLRNRGPGGSAEASRSLSVSARARSSSEDKITVHFINRDGETLTTKGKVGDSLLDVVVENNLDIDGFGACEGTLACSTCHLIFEDHIYEKLDAITDEENDMLDLAYGLTDRSRLGCQICLTKSMDNMTVRVPETVADARQSIDVGKTS [L25K]
scaled log2 fold change [1]: 0.14 | scaled log2 fold change [2]: 1.29

MAAAGGARLLRAASAVLGGPAGRWPHHAGSRAGSSGLLRNRGPGGSAEASRSLSVSARARSSSEDKITVHFINRDGETLTTKGKVGDSLLDVVVENNLDIDGFGACEGTLACSTCHLIFEDHIYEKLDAITDEENDMLDLAYGLTDRSRLGCQICLTKSMDNMTVRVPETVADARQSIDVGKTS [L25P]
scaled log2 fold change [1]: 0.318 | scaled log2 fold change [2]: 1.23

MAAAGGARLLRAASAVLGGPAGRWQHHAGSRAGSSGLLRNRGPGGSAEASRSLSVSARARSSSEDKITVHFINRDGETLTTKGKVGDSLLDVVVENNLDIDGFGACEGTLACSTCHLIFEDHIYEKLDAITDEENDMLDLAYGLTDRSRLGCQICLTKSMDNMTVRVPETVADARQSIDVGKTS [L25Q]
scaled log2 fold change [1]: -0.0213 | scaled log2 fold change [2]: -1.08

MAAAGGARLLRAASAVLGGPAGRWCHHAGSRAGSSGLLRNRGPGGSAEASRSLSVSARARSSSEDKITVHFINRDGETLTTKGKVGDSLLDVVVENNLDIDGFGACEGTLACSTCHLIFEDHIYEKLDAITDEENDMLDLAYGLTDRSRLGCQICLTKSMDNMTVRVPETVADARQSIDVGKTS [L25C]
scaled log2 fold change [1]: 0.238 | scaled log2 fold change [2]: 0.0546

MAAAGGARLLRAASAVLGGPAGRWRHHAGSRAGSSGLLRNRGPGGSAEASRSLSVSARARSSSEDKITVHFINRDGETLTTKGKVGDSLLDVVVENNLDIDGFGACEGTLACSTCHLIFEDHIYEKLDAITDEENDMLDLAYGLTDRSRLGCQICLTKSMDNMTVRVPETVADARQSIDVGKTS [L25R]
scaled log2 fold change [1]: 0.126 | scaled log2 fold change [2]: 0.222

MAAAGGARLLRAASAVLGGPAGRWNHHAGSRAGSSGLLRNRGPGGSAEASRSLSVSARARSSSEDKITVHFINRDGETLTTKGKVGDSLLDVVVENNLDIDGFGACEGTLACSTCHLIFEDHIYEKLDAITDEENDMLDLAYGLTDRSRLGCQICLTKSMDNMTVRVPETVADARQSIDVGKTS [L25N]
scaled log2 fold change [1]: -0.498

MAAAGGARLLRAASAVLGGPAGRWVHHAGSRAGSSGLLRNRGPGGSAEASRSLSVSARARSSSEDKITVHFINRDGETLTTKGKVGDSLLDVVVENNLDIDGFGACEGTLACSTCHLIFEDHIYEKLDAITDEENDMLDLAYGLTDRSRLGCQICLTKSMDNMTVRVPETVADARQSIDVGKTS [L25V]
scaled log2 fold change [1]: 0.553

MAAAGGARLLRAASAVLGGPAGRWHHHAGSRAGSSGLLRNRGPGGSAEASRSLSVSARARSSSEDKITVHFINRDGETLTTKGKVGDSLLDVVVENNLDIDGFGACEGTLACSTCHLIFEDHIYEKLDAITDEENDMLDLAYGLTDRSRLGCQICLTKSMDNMTVRVPETVADARQSIDVGKTS [L25H]
scaled log2 fold change [1]: 0.124 | scaled log2 fold change [2]: -0.423

MAAAGGARLLRAASAVLGGPAGRWGHHAGSRAGSSGLLRNRGPGGSAEASRSLSVSARARSSSEDKITVHFINRDGETLTTKGKVGDSLLDVVVENNLDIDGFGACEGTLACSTCHLIFEDHIYEKLDAITDEENDMLDLAYGLTDRSRLGCQICLTKSMDNMTVRVPETVADARQSIDVGKTS [L25G]
scaled log2 fold change [1]: -0.623

MAAAGGARLLRAASAVLGGPAGRWMHHAGSRAGSSGLLRNRGPGGSAEASRSLSVSARARSSSEDKITVHFINRDGETLTTKGKVGDSLLDVVVENNLDIDGFGACEGTLACSTCHLIFEDHIYEKLDAITDEENDMLDLAYGLTDRSRLGCQICLTKSMDNMTVRVPETVADARQSIDVGKTS [L25M]
scaled log2 fold change [1]: 0.607 | scaled log2 fold change [2]: 1.17

MAAAGGARLLRAASAVLGGPAGRWSHHAGSRAGSSGLLRNRGPGGSAEASRSLSVSARARSSSEDKITVHFINRDGETLTTKGKVGDSLLDVVVENNLDIDGFGACEGTLACSTCHLIFEDHIYEKLDAITDEENDMLDLAYGLTDRSRLGCQICLTKSMDNMTVRVPETVADARQSIDVGKTS [L25S]
scaled log2 fold change [1]: 0.221

MAAAGGARLLRAASAVLGGPAGRWEHHAGSRAGSSGLLRNRGPGGSAEASRSLSVSARARSSSEDKITVHFINRDGETLTTKGKVGDSLLDVVVENNLDIDGFGACEGTLACSTCHLIFEDHIYEKLDAITDEENDMLDLAYGLTDRSRLGCQICLTKSMDNMTVRVPETVADARQSIDVGKTS [L25E]
scaled log2 fold change [1]: -0.135 | scaled log2 fold change [2]: -0.0782

MAAAGGARLLRAASAVLGGPAGRWTHHAGSRAGSSGLLRNRGPGGSAEASRSLSVSARARSSSEDKITVHFINRDGETLTTKGKVGDSLLDVVVENNLDIDGFGACEGTLACSTCHLIFEDHIYEKLDAITDEENDMLDLAYGLTDRSRLGCQICLTKSMDNMTVRVPETVADARQSIDVGKTS [L25T]
scaled log2 fold change [1]: 0.536

MAAAGGARLLRAASAVLGGPAGRVLHHAGSRAGSSGLLRNRGPGGSAEASRSLSVSARARSSSEDKITVHFINRDGETLTTKGKVGDSLLDVVVENNLDIDGFGACEGTLACSTCHLIFEDHIYEKLDAITDEENDMLDLAYGLTDRSRLGCQICLTKSMDNMTVRVPETVADARQSIDVGKTS [W24V]
scaled log2 fold change [1]: 0.155 | scaled log2 fold change [2]: -0.39

MAAAGGARLLRAASAVLGGPAGRRLHHAGSRAGSSGLLRNRGPGGSAEASRSLSVSARARSSSEDKITVHFINRDGETLTTKGKVGDSLLDVVVENNLDIDGFGACEGTLACSTCHLIFEDHIYEKLDAITDEENDMLDLAYGLTDRSRLGCQICLTKSMDNMTVRVPETVADARQSIDVGKTS [W24R]
scaled log2 fold change [1]: -0.838 | scaled log2 fold change [2]: -0.244

MAAAGGARLLRAASAVLGGPAGRWLAHAGSRAGSSGLLRNRGPGGSAEASRSLSVSARARSSSEDKITVHFINRDGETLTTKGKVGDSLLDVVVENNLDIDGFGACEGTLACSTCHLIFEDHIYEKLDAITDEENDMLDLAYGLTDRSRLGCQICLTKSMDNMTVRVPETVADARQSIDVGKTS [H26A]
scaled log2 fold change [1]: 0.684 | scaled log2 fold change [2]: 1.75
